Experimental data from patent US20140322163A1 (published 2014).
Substitutions are numbered along the chain they refer to. In names and notes the source's numbering stands.

B1: G54A (heavy chain) (antibody, V domains shown)
VH: QVQLVQSGGQMKKPGESMRISCRASGYEFIDCTLNWIRLAPGKRPEWMGWLKPRAGAVNYARPLQGRVTMTRDVYSDTAFLELRSLTVDDTAVYFCTRGKNCDYNWDFEHWGRGTPVIVSS
VL: EIVLTQSPGTLSLSPGETAIISCRTSQYGSLAWYQQRPGQAPRLVIYSGSTRAAGIPDRFSGSRWGPDYNLTISNLESGDFGVYYCQQYEFFGQGTKVQVDI
B2: V3A (light chain) (antibody, V domains shown)
VH: B1 VH with A55G
VL: B1 VL with V3A

What was measured:
Test in all cases: BLI
[1] = target: YU2_FL
[2] = target: RSC3
[3] = target: ZM109_FL

Binder | Kd [1] | Kd [2] | Kd [3]
B1 | 6.51 nM | 2.64 nM | 76 nM
B2 | 27.6 nM | 6.09 nM | 54.7 nM
